Assay results taken from doi:10.1101/2022.12.13.520362 (bioRxiv, 2022).
Numbering of substitutions follows the chain as printed. Names may count otherwise.

B1: his6-tagged WT scaffolding protein of bacteriophage P22 (gp8) (natural protein, UniProt P26748 1-303, looked up)
chain: MEPTTEIQATEDLTLSGDHAAASADSLVVDNANDNAGQEEGFEIVLKDDETAPKQDPAKNAEFARRRIERKRQRELEQQMEAVKRGELPESLRVNPDLPPQPDINAYLSEEGLAKYDYDNSRALAAFNAANTEWLMKAQDARSNAVAEQGRKTQEFTQQSAQYVEAARKHYDAAEKLNIPDYQEKEDAFMQLVPPAVGADIMRLFPEKSAALMYHLGANPEKARQLLAMDGQSALIELTRLSERLTLKPRGKQISSAPPADQPITGDVSAANKDAIRKQMDAAASKGDVETYRKLKAKLKGIR
B2: his6-tagged L245C scaffolding protein of bacteriophage P22 (natural protein, UniProt P26748 1-303, looked up)
chain: B1 chain with L245C

Assays:
[1] = biological target: bacteriophage P22 coat protein monomers (WT) (bacteriophage P22, UniProt P26747 1-430); test: weak affinity chromatography
[2] = biological target: empty procapsid shells of bacteriophage P22 (WT coat protein) (bacteriophage P22, UniProt P26747 1-430); test: co-sedimentation

| Binder | binding result [1] | binding result [2] |
| --- | --- | --- |
| B1 | binds | binds |
| B2 | – | binds |
